Experimental findings from patent US5989804, “E6 binding proteins” (New England Medical Center Hospitals, Inc., dated 1999) are described below.

The test concerns the target in vitro-translated 35S-labeled HPV16 E6 (human papillomavirus type 16, UniProt P03126, 35S-labeled cysteine or methionine). Description: GST pull-down of 35S-labeled in vitro-translated HPV-16 E6.

ILVEKDRFVNDYDKDNDGRLDPQELLPWVVPNNQGI (other) [GSTSD7EF5]: the binding result is given as “no binding”.
